According to PMC6056499, “A systematic dissection of sequence elements determining β-Klotho and FGF interaction and signaling” (Scientific Reports, 2018):

How the values were obtained:
[1] = molecular target: human β-Klotho extracellular domain (aa1–992) fused with a 6 × His tag at the C-terminus (UniProt Q86Z14); experiment: AlphaScreen; settings: parent: est. 1.0, read off a plot
[2] = molecular target: human β-Klotho extracellular domain (aa1–992) fused with a 6 × His tag at the C-terminus (UniProt Q86Z14); experiment: solid-phase binding assay; settings: parent: est. 1.0; read off a plot
[3] = competition with FGF19 for β-Klotho
[4] = competition with FGF21 for β-Klotho

human β-Klotho extracellular domain (aa1–992) fused with a 6 × His tag at the C-terminus, sequence (Q86Z14 53-992): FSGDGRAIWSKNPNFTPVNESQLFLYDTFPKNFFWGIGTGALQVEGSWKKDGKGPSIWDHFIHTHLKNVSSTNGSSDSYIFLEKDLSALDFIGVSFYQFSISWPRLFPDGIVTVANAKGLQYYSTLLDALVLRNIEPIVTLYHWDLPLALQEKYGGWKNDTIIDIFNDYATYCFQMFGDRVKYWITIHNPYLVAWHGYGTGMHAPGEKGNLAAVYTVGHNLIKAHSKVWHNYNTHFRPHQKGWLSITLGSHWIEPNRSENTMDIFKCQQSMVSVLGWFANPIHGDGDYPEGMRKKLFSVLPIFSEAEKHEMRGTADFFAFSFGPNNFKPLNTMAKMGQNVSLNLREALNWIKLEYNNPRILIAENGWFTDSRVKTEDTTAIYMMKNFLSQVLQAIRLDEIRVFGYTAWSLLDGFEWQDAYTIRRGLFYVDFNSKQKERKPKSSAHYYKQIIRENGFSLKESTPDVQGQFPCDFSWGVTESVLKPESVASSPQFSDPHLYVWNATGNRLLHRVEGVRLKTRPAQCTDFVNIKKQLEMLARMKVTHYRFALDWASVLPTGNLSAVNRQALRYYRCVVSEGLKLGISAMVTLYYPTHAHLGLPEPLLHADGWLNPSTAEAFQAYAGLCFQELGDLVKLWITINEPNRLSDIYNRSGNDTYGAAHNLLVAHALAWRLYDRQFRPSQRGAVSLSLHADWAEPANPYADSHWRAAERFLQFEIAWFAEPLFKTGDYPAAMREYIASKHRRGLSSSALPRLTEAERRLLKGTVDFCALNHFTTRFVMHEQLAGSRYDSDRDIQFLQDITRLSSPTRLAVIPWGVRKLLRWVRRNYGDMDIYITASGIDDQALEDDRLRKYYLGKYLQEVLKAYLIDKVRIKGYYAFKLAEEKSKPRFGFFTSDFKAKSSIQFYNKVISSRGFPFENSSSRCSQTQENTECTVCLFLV
FGF19 C-terminal peptide, WT FGF19^185–216 (from UniProt O95750) 187M-A, sequence (O95750 185-216, change not shown): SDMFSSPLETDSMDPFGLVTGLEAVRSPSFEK
FGF19 C-terminal peptide, WT FGF19^185–216 (from UniProt O95750) 185S-A, sequence (O95750 185-216, change not shown): as above
FGF19 C-terminal peptide, WT FGF19^185–216 (from UniProt O95750) 192L-A, sequence (O95750 185-216, change not shown): as above
FGF19 C-terminal peptide, WT FGF19^185–216 (from UniProt O95750) 190S-A, sequence (O95750 185-216, change not shown): as above
FGF19 C-terminal peptide, WT FGF19^185–216 (from UniProt O95750) 195D-A, sequence (O95750 185-216, change not shown): as above
FGF19 C-terminal peptide, WT FGF19^185–216 (from UniProt O95750) 186D-A, sequence (O95750 185-216, change not shown): as above
FGF19 C-terminal peptide, WT FGF19^185–216 (from UniProt O95750) 193E-A, sequence (O95750 185-216, change not shown): as above
FGF19 C-terminal peptide, WT FGF19^185–216 (from UniProt O95750) 189S-A, sequence (O95750 185-216, change not shown): as above
FGF19 C-terminal peptide, WT FGF19^185–216 (from UniProt O95750) 191P-A, sequence (O95750 185-216, change not shown): as above
FGF19 C-terminal peptide, WT FGF19^185–216 (from UniProt O95750) 188F-A, sequence (O95750 185-216, change not shown): as above
FGF19 C-terminal peptide, WT FGF19^185–216 (from UniProt O95750) 194T-A, sequence (O95750 185-216, change not shown): as above
mature human FGF21 polypeptide fused with the human Fc fragment at the N-terminus (Fc-FGF21), wild type (from UniProt Q9NSA1) 202G-R, sequence (Q9NSA1 29-209, change not shown): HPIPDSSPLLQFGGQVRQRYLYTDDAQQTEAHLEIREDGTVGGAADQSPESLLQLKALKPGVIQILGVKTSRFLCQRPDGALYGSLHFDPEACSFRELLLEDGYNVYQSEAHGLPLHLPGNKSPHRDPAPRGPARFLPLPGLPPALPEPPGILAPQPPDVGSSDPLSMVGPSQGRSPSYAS
mature human FGF21 polypeptide fused with the human Fc fragment at the N-terminus (Fc-FGF21), wild type (from UniProt Q9NSA1) 208A-R, sequence (Q9NSA1 29-209, change not shown): as above
mature human FGF21 polypeptide fused with the human Fc fragment at the N-terminus (Fc-FGF21), wild type (from UniProt Q9NSA1) 209S-A, sequence (Q9NSA1 29-209, change not shown): as above
mature human FGF21 polypeptide fused with the human Fc fragment at the N-terminus (Fc-FGF21), wild type (from UniProt Q9NSA1) 188V-R, sequence (Q9NSA1 29-209, change not shown): as above
mature human FGF21 polypeptide fused with the human Fc fragment at the N-terminus (Fc-FGF21), wild type (from UniProt Q9NSA1) 205P-R, sequence (Q9NSA1 29-209, change not shown): as above
mature human FGF21 polypeptide fused with the human Fc fragment at the N-terminus (Fc-FGF21), wild type (from UniProt Q9NSA1) 199P-A, sequence (Q9NSA1 29-209, change not shown): as above
mature human FGF21 polypeptide fused with the human Fc fragment at the N-terminus (Fc-FGF21), wild type (from UniProt Q9NSA1) 199P-R, sequence (Q9NSA1 29-209, change not shown): as above
mature human FGF21 polypeptide fused with the human Fc fragment at the N-terminus (Fc-FGF21), wild type (from UniProt Q9NSA1) 195S-R, sequence (Q9NSA1 29-209, change not shown): as above
mature human FGF21 polypeptide fused with the human Fc fragment at the N-terminus (Fc-FGF21), wild type (from UniProt Q9NSA1) 190S-R, sequence (Q9NSA1 29-209, change not shown): as above
mature human FGF21 polypeptide fused with the human Fc fragment at the N-terminus (Fc-FGF21), wild type (from UniProt Q9NSA1) 209S-R, sequence (Q9NSA1 29-209, change not shown): as above
mature human FGF21 polypeptide fused with the human Fc fragment at the N-terminus (Fc-FGF21), wild type (from UniProt Q9NSA1) 190S-A, sequence (Q9NSA1 29-209, change not shown): as above
mature human FGF21 polypeptide fused with the human Fc fragment at the N-terminus (Fc-FGF21), wild type (from UniProt Q9NSA1) 189G-R, sequence (Q9NSA1 29-209, change not shown): as above
mature human FGF21 polypeptide fused with the human Fc fragment at the N-terminus (Fc-FGF21), wild type (from UniProt Q9NSA1) 202G-A, sequence (Q9NSA1 29-209, change not shown): as above
mature human FGF21 polypeptide fused with the human Fc fragment at the N-terminus (Fc-FGF21), wild type (from UniProt Q9NSA1) 203R-A, sequence (Q9NSA1 29-209, change not shown): as above
mature human FGF21 polypeptide fused with the human Fc fragment at the N-terminus (Fc-FGF21), wild type (from UniProt Q9NSA1) 198G-R, sequence (Q9NSA1 29-209, change not shown): as above
mature human FGF21 polypeptide fused with the human Fc fragment at the N-terminus (Fc-FGF21), wild type (from UniProt Q9NSA1) 200S-R, sequence (Q9NSA1 29-209, change not shown): as above
mature human FGF21 polypeptide fused with the human Fc fragment at the N-terminus (Fc-FGF21), wild type (from UniProt Q9NSA1) 195S-A, sequence (Q9NSA1 29-209, change not shown): as above

Substance | ratio to parent [1, 3] | ratio to parent [1, 4] | ratio to parent [2]
FGF19 C-terminal peptide, WT FGF19^185–216 (from UniProt O95750) 186D-A | 0.8 | 0.7 | 
FGF19 C-terminal peptide, WT FGF19^185–216 (from UniProt O95750) 187M-A | 1.2 | 0.9 | 
FGF19 C-terminal peptide, WT FGF19^185–216 (from UniProt O95750) 188F-A | 2.7 | 1.4 | 
FGF19 C-terminal peptide, WT FGF19^185–216 (from UniProt O95750) 192L-A | 11 | 7.5 | 
FGF19 C-terminal peptide, WT FGF19^185–216 (from UniProt O95750) 194T-A | 2.1 | 1.4 | 
mature human FGF21 polypeptide fused with the human Fc fragment at the N-terminus (Fc-FGF21), wild type (from UniProt Q9NSA1) 188V-A |  |  | 200
mature human FGF21 polypeptide fused with the human Fc fragment at the N-terminus (Fc-FGF21), wild type (from UniProt Q9NSA1) 189G-R |  |  | 1.2
mature human FGF21 polypeptide fused with the human Fc fragment at the N-terminus (Fc-FGF21), wild type (from UniProt Q9NSA1) 195S-A |  |  | 3
mature human FGF21 polypeptide fused with the human Fc fragment at the N-terminus (Fc-FGF21), wild type (from UniProt Q9NSA1) 195S-R |  |  | 0.5
mature human FGF21 polypeptide fused with the human Fc fragment at the N-terminus (Fc-FGF21), wild type (from UniProt Q9NSA1) 198G-A |  |  | 0.5
mature human FGF21 polypeptide fused with the human Fc fragment at the N-terminus (Fc-FGF21), wild type (from UniProt Q9NSA1) 199P-A |  |  | 1
mature human FGF21 polypeptide fused with the human Fc fragment at the N-terminus (Fc-FGF21), wild type (from UniProt Q9NSA1) 200S-A |  |  | 0.8
mature human FGF21 polypeptide fused with the human Fc fragment at the N-terminus (Fc-FGF21), wild type (from UniProt Q9NSA1) 200S-R |  |  | 2
mature human FGF21 polypeptide fused with the human Fc fragment at the N-terminus (Fc-FGF21), wild type (from UniProt Q9NSA1) 201Q-R |  |  | 1
mature human FGF21 polypeptide fused with the human Fc fragment at the N-terminus (Fc-FGF21), wild type (from UniProt Q9NSA1) 202G-A |  |  | 1.8
mature human FGF21 polypeptide fused with the human Fc fragment at the N-terminus (Fc-FGF21), wild type (from UniProt Q9NSA1) 202G-R |  |  | 4.8
mature human FGF21 polypeptide fused with the human Fc fragment at the N-terminus (Fc-FGF21), wild type (from UniProt Q9NSA1) 203R-A |  |  | 2
mature human FGF21 polypeptide fused with the human Fc fragment at the N-terminus (Fc-FGF21), wild type (from UniProt Q9NSA1) 205P-R |  |  | 220
mature human FGF21 polypeptide fused with the human Fc fragment at the N-terminus (Fc-FGF21), wild type (from UniProt Q9NSA1) 208A-R |  |  | 9

Continued, values first:

ratio to parent [1, 3] | ratio to parent [1, 4] | ratio to parent [2] | Substance
1.4 | 0.8 |  | FGF19 C-terminal peptide, WT FGF19^185–216 (from UniProt O95750) 185S-A
1.7 | 1.3 |  | FGF19 C-terminal peptide, WT FGF19^185–216 (from UniProt O95750) 189S-A
2.9 | 1.4 |  | FGF19 C-terminal peptide, WT FGF19^185–216 (from UniProt O95750) 190S-A
0.8 | 0.5 |  | FGF19 C-terminal peptide, WT FGF19^185–216 (from UniProt O95750) 191P-A
0.3 | 0.3 |  | FGF19 C-terminal peptide, WT FGF19^185–216 (from UniProt O95750) 193E-A
5.5 | 4.5 |  | FGF19 C-terminal peptide, WT FGF19^185–216 (from UniProt O95750) 195D-A
 |  | 950 | mature human FGF21 polypeptide fused with the human Fc fragment at the N-terminus (Fc-FGF21), wild type (from UniProt Q9NSA1) 188V-R
 |  | 0.8 | mature human FGF21 polypeptide fused with the human Fc fragment at the N-terminus (Fc-FGF21), wild type (from UniProt Q9NSA1) 189G-A
 |  | 15 | mature human FGF21 polypeptide fused with the human Fc fragment at the N-terminus (Fc-FGF21), wild type (from UniProt Q9NSA1) 190S-A
 |  | 6.5 | mature human FGF21 polypeptide fused with the human Fc fragment at the N-terminus (Fc-FGF21), wild type (from UniProt Q9NSA1) 190S-R
 |  | 90 | mature human FGF21 polypeptide fused with the human Fc fragment at the N-terminus (Fc-FGF21), wild type (from UniProt Q9NSA1) 197V-A
 |  | 0.5 | mature human FGF21 polypeptide fused with the human Fc fragment at the N-terminus (Fc-FGF21), wild type (from UniProt Q9NSA1) 198G-R
 |  | 1.2 | mature human FGF21 polypeptide fused with the human Fc fragment at the N-terminus (Fc-FGF21), wild type (from UniProt Q9NSA1) 199P-R
 |  | 0.6 | mature human FGF21 polypeptide fused with the human Fc fragment at the N-terminus (Fc-FGF21), wild type (from UniProt Q9NSA1) 201Q-A
 |  | 0.5 | mature human FGF21 polypeptide fused with the human Fc fragment at the N-terminus (Fc-FGF21), wild type (from UniProt Q9NSA1) 209S-A
 |  | 1.6 | mature human FGF21 polypeptide fused with the human Fc fragment at the N-terminus (Fc-FGF21), wild type (from UniProt Q9NSA1) 209S-R
